# According to the supplement of paper PMC9112550, “Optimization of the antimicrobial peptide Bac7 by deep mutational scanning” (BMC Biology, 2022):
# Test system: Escherichia coli TOP10
# Experiment: shrunken log2 fold change of peptide-encoding DNA abundance (4.5 h post-induction vs induction); higher = less antimicrobial activity (less host growth inhibition)
# Conditions: time post-induction: 4.5 h; library: site-saturation at positions 5, 18, 19, 20
# 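Further: peptides expressed intracellularly from a pBAD plasmid library in pooled LB shake-flask culture, induced with 0.3% L-arabinose, DNA abundance read by NGS, three biological replicates, DESeq2 with apeglm shrinkage.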
sequence,measurement,value
RRIRLRPPRLPRPRPRPVQNPRP,shrunken log2 fold change,0.0224
RRIRKRPPRLPRPRPRPKTFPRP,shrunken log2 fold change,-0.124
RRIRDRPPRLPRPRPRPLTPPRP,shrunken log2 fold change,0.128
RRIRKRPPRLPRPRPRPVEPPRP,shrunken log2 fold change,0.505
RRIRCRPPRLPRPRPRPQKGPRP,shrunken log2 fold change,-0.133
RRIRARPPRLPRPRPRPQFAPRP,shrunken log2 fold change,0.402
RRIRGRPPRLPRPRPRPDDGPRP,shrunken log2 fold change,-0.0284
RRIRSRPPRLPRPRPRPVHFPRP,shrunken log2 fold change,0.0527
RRIRPRPPRLPRPRPRPCFTPRP,shrunken log2 fold change,-0.307
RRIRGRPPRLPRPRPRPHQRPRP,shrunken log2 fold change,0.23
RRIRWRPPRLPRPRPRPPNMPRP,shrunken log2 fold change,0.0854
RRIRFRPPRLPRPRPRPHDPPRP,shrunken log2 fold change,-0.1
RRIRCRPPRLPRPRPRPDDCPRP,shrunken log2 fold change,0.112
RRIRNRPPRLPRPRPRPLQWPRP,shrunken log2 fold change,0.0683
RRIRNRPPRLPRPRPRPDAAPRP,shrunken log2 fold change,0.45
RRIRHRPPRLPRPRPRPKCRPRP,shrunken log2 fold change,-0.163
RRIRIRPPRLPRPRPRPNQTPRP,shrunken log2 fold change,-0.00271
RRIRFRPPRLPRPRPRPYQNPRP,shrunken log2 fold change,-0.0547
RRIRPRPPRLPRPRPRPWRVPRP,shrunken log2 fold change,0.244
RRIRNRPPRLPRPRPRPTWHPRP,shrunken log2 fold change,0.0157
RRIRCRPPRLPRPRPRPYAVPRP,shrunken log2 fold change,-0.349
RRIRQRPPRLPRPRPRPDMDPRP,shrunken log2 fold change,-0.0896
RRIRCRPPRLPRPRPRPMKWPRP,shrunken log2 fold change,0.0655
RRIRQRPPRLPRPRPRPKQSPRP,shrunken log2 fold change,-0.0143
RRIRDRPPRLPRPRPRPYQWPRP,shrunken log2 fold change,0.0508
RRIRERPPRLPRPRPRPPRHPRP,shrunken log2 fold change,0.0414
RRIRSRPPRLPRPRPRPWVSPRP,shrunken log2 fold change,-0.203
RRIRLRPPRLPRPRPRPTLRPRP,shrunken log2 fold change,0.161
RRIRQRPPRLPRPRPRPDVHPRP,shrunken log2 fold change,-0.304
RRIRTRPPRLPRPRPRPSHMPRP,shrunken log2 fold change,-0.7
RRIRMRPPRLPRPRPRPHEVPRP,shrunken log2 fold change,0.16
RRIRMRPPRLPRPRPRPWVMPRP,shrunken log2 fold change,-0.022
RRIRARPPRLPRPRPRPWENPRP,shrunken log2 fold change,0.0143
RRIRHRPPRLPRPRPRPTYGPRP,shrunken log2 fold change,-0.106
RRIRTRPPRLPRPRPRPGDAPRP,shrunken log2 fold change,0.206
RRIRCRPPRLPRPRPRPWKVPRP,shrunken log2 fold change,0.101
RRIRIRPPRLPRPRPRPSNDPRP,shrunken log2 fold change,-0.779
RRIRVRPPRLPRPRPRPVFPPRP,shrunken log2 fold change,0.038
RRIRARPPRLPRPRPRPDSHPRP,shrunken log2 fold change,-0.779
RRIRRRPPRLPRPRPRPQYLPRP,shrunken log2 fold change,-0.0489
RRIRRRPPRLPRPRPRPVLCPRP,shrunken log2 fold change,0.569
RRIRQRPPRLPRPRPRPTPRPRP,shrunken log2 fold change,0.843
RRIRRRPPRLPRPRPRPATWPRP,shrunken log2 fold change,0.359
RRIRQRPPRLPRPRPRPVEWPRP,shrunken log2 fold change,0.0152
RRIRQRPPRLPRPRPRPKETPRP,shrunken log2 fold change,0.00762
RRIRTRPPRLPRPRPRPGYVPRP,shrunken log2 fold change,-0.526
RRIRNRPPRLPRPRPRPMTIPRP,shrunken log2 fold change,-0.35
RRIRERPPRLPRPRPRPEQEPRP,shrunken log2 fold change,-0.0107
RRIRWRPPRLPRPRPRPEWVPRP,shrunken log2 fold change,0.927
RRIRYRPPRLPRPRPRPYCAPRP,shrunken log2 fold change,-0.899
RRIRKRPPRLPRPRPRPMIQPRP,shrunken log2 fold change,0.195
RRIRARPPRLPRPRPRPQHWPRP,shrunken log2 fold change,0.0917
RRIRRRPPRLPRPRPRPGFMPRP,shrunken log2 fold change,0.252
RRIRFRPPRLPRPRPRPNVYPRP,shrunken log2 fold change,-0.558
RRIRWRPPRLPRPRPRPCFHPRP,shrunken log2 fold change,-0.247
RRIRARPPRLPRPRPRPAPKPRP,shrunken log2 fold change,1
RRIRFRPPRLPRPRPRPTIPPRP,shrunken log2 fold change,-0.562
RRIRPRPPRLPRPRPRPRNQPRP,shrunken log2 fold change,0.00569
RRIRIRPPRLPRPRPRPQMLPRP,shrunken log2 fold change,-0.633
RRIRWRPPRLPRPRPRPAKHPRP,shrunken log2 fold change,0.192
RRIRTRPPRLPRPRPRPIPNPRP,shrunken log2 fold change,0.0695
RRIRKRPPRLPRPRPRPDGQPRP,shrunken log2 fold change,0.0566
RRIRNRPPRLPRPRPRPCMPPRP,shrunken log2 fold change,-0.549
RRIRNRPPRLPRPRPRPFHPPRP,shrunken log2 fold change,0.0752
RRIRNRPPRLPRPRPRPSGHPRP,shrunken log2 fold change,-0.141
RRIRSRPPRLPRPRPRPDFTPRP,shrunken log2 fold change,0.0298
RRIRTRPPRLPRPRPRPWRRPRP,shrunken log2 fold change,0.496
RRIRIRPPRLPRPRPRPIMNPRP,shrunken log2 fold change,-1.27
RRIRHRPPRLPRPRPRPEQYPRP,shrunken log2 fold change,-0.224
RRIRQRPPRLPRPRPRPYMEPRP,shrunken log2 fold change,-0.26
RRIRVRPPRLPRPRPRPKIKPRP,shrunken log2 fold change,-0.303
RRIRHRPPRLPRPRPRPKCAPRP,shrunken log2 fold change,-0.0408
RRIRMRPPRLPRPRPRPHCGPRP,shrunken log2 fold change,-0.033
RRIRGRPPRLPRPRPRPNFAPRP,shrunken log2 fold change,0.569
RRIRNRPPRLPRPRPRPLAWPRP,shrunken log2 fold change,0.00628
RRIRFRPPRLPRPRPRPQEKPRP,shrunken log2 fold change,-0.0525
RRIRNRPPRLPRPRPRPGVKPRP,shrunken log2 fold change,-0.117
RRIRGRPPRLPRPRPRPFYIPRP,shrunken log2 fold change,0.0551
RRIRYRPPRLPRPRPRPAWEPRP,shrunken log2 fold change,1.86
RRIRWRPPRLPRPRPRPVCCPRP,shrunken log2 fold change,0.469
RRIRFRPPRLPRPRPRPFHLPRP,shrunken log2 fold change,-0.391
RRIRSRPPRLPRPRPRPFGQPRP,shrunken log2 fold change,-0.197
RRIRDRPPRLPRPRPRPHRIPRP,shrunken log2 fold change,-0.00804
RRIRGRPPRLPRPRPRPRNRPRP,shrunken log2 fold change,0.637
RRIRARPPRLPRPRPRPLDEPRP,shrunken log2 fold change,1.53
RRIRSRPPRLPRPRPRPHTIPRP,shrunken log2 fold change,-0.87
RRIRFRPPRLPRPRPRPWDHPRP,shrunken log2 fold change,-0.483
RRIRVRPPRLPRPRPRPLILPRP,shrunken log2 fold change,-0.409
RRIRRRPPRLPRPRPRPTWDPRP,shrunken log2 fold change,0.19
RRIRYRPPRLPRPRPRPTNVPRP,shrunken log2 fold change,-0.868
RRIRQRPPRLPRPRPRPGLYPRP,shrunken log2 fold change,0.224
RRIRRRPPRLPRPRPRPIKFPRP,shrunken log2 fold change,-0.202
RRIRGRPPRLPRPRPRPSLIPRP,shrunken log2 fold change,0.211
RRIRVRPPRLPRPRPRPDFYPRP,shrunken log2 fold change,-0.25
RRIRCRPPRLPRPRPRPMNDPRP,shrunken log2 fold change,-0.44
RRIRHRPPRLPRPRPRPLRSPRP,shrunken log2 fold change,0.549
RRIRSRPPRLPRPRPRPTAMPRP,shrunken log2 fold change,0.4
RRIRQRPPRLPRPRPRPCLVPRP,shrunken log2 fold change,-0.252
RRIRARPPRLPRPRPRPNWGPRP,shrunken log2 fold change,-0.267
RRIRFRPPRLPRPRPRPLEMPRP,shrunken log2 fold change,-0.357
RRIRNRPPRLPRPRPRPMYFPRP,shrunken log2 fold change,-0.0737
RRIRTRPPRLPRPRPRPADSPRP,shrunken log2 fold change,0.0603
RRIRARPPRLPRPRPRPLWSPRP,shrunken log2 fold change,0.263
RRIRPRPPRLPRPRPRPMPAPRP,shrunken log2 fold change,0.0935
RRIRQRPPRLPRPRPRPARIPRP,shrunken log2 fold change,-0.0224
RRIRARPPRLPRPRPRPSAIPRP,shrunken log2 fold change,0.173
RRIRTRPPRLPRPRPRPWLDPRP,shrunken log2 fold change,-0.181
RRIRPRPPRLPRPRPRPMVPPRP,shrunken log2 fold change,0.18
RRIRNRPPRLPRPRPRPYVFPRP,shrunken log2 fold change,-0.7
RRIRDRPPRLPRPRPRPCLEPRP,shrunken log2 fold change,0.103
RRIRFRPPRLPRPRPRPGYDPRP,shrunken log2 fold change,-0.292
RRIRIRPPRLPRPRPRPCFWPRP,shrunken log2 fold change,-0.22
RRIRDRPPRLPRPRPRPHSQPRP,shrunken log2 fold change,-0.0254
RRIRGRPPRLPRPRPRPCLCPRP,shrunken log2 fold change,0.655
RRIRIRPPRLPRPRPRPQARPRP,shrunken log2 fold change,-0.115
RRIRHRPPRLPRPRPRPPKTPRP,shrunken log2 fold change,0.177
RRIRERPPRLPRPRPRPVPPPRP,shrunken log2 fold change,0.22
RRIRGRPPRLPRPRPRPTCAPRP,shrunken log2 fold change,1.11
RRIRLRPPRLPRPRPRPSLYPRP,shrunken log2 fold change,-0.431
RRIRSRPPRLPRPRPRPCMQPRP,shrunken log2 fold change,-0.31
RRIRVRPPRLPRPRPRPLMFPRP,shrunken log2 fold change,-0.449
RRIRLRPPRLPRPRPRPLMCPRP,shrunken log2 fold change,-0.422
RRIRHRPPRLPRPRPRPTKYPRP,shrunken log2 fold change,-0.345
RRIRMRPPRLPRPRPRPDCFPRP,shrunken log2 fold change,0.0619
RRIRNRPPRLPRPRPRPWNHPRP,shrunken log2 fold change,-0.612
RRIRVRPPRLPRPRPRPSSRPRP,shrunken log2 fold change,-0.231
RRIRFRPPRLPRPRPRPYPPPRP,shrunken log2 fold change,-0.665
RRIRDRPPRLPRPRPRPWCDPRP,shrunken log2 fold change,0.211
RRIRGRPPRLPRPRPRPFAPPRP,shrunken log2 fold change,1
RRIRWRPPRLPRPRPRPRKPPRP,shrunken log2 fold change,0.188
RRIRMRPPRLPRPRPRPDGSPRP,shrunken log2 fold change,0.107
RRIRYRPPRLPRPRPRPCYIPRP,shrunken log2 fold change,-0.189
RRIRGRPPRLPRPRPRPHHKPRP,shrunken log2 fold change,-0.122
RRIRHRPPRLPRPRPRPKCMPRP,shrunken log2 fold change,-0.29
RRIRKRPPRLPRPRPRPAGQPRP,shrunken log2 fold change,0.0284
RRIRTRPPRLPRPRPRPIEQPRP,shrunken log2 fold change,-0.00141
RRIRHRPPRLPRPRPRPHVMPRP,shrunken log2 fold change,-0.185
RRIRWRPPRLPRPRPRPYTYPRP,shrunken log2 fold change,-0.329
RRIRNRPPRLPRPRPRPSQEPRP,shrunken log2 fold change,0.299
RRIRIRPPRLPRPRPRPSESPRP,shrunken log2 fold change,-0.159
RRIRGRPPRLPRPRPRPNCEPRP,shrunken log2 fold change,0.376
RRIRERPPRLPRPRPRPSYIPRP,shrunken log2 fold change,-0.216
RRIRTRPPRLPRPRPRPNMDPRP,shrunken log2 fold change,-0.508
RRIRHRPPRLPRPRPRPPNRPRP,shrunken log2 fold change,-0.0966
RRIRVRPPRLPRPRPRPKVLPRP,shrunken log2 fold change,-0.51
RRIRGRPPRLPRPRPRPERMPRP,shrunken log2 fold change,0.251
RRIRMRPPRLPRPRPRPRPPPRP,shrunken log2 fold change,1.55
RRIRCRPPRLPRPRPRPRWYPRP,shrunken log2 fold change,-0.134
RRIRSRPPRLPRPRPRPYNCPRP,shrunken log2 fold change,-0.171
RRIRRRPPRLPRPRPRPNIHPRP,shrunken log2 fold change,0.564
